Results reported in publication PMC8431773, “Novel Cold-Adapted Recombinant Laccase KbLcc1 from Kabatiella bupleuri G3 IBMiP as a Green Catalyst in Biotransformation” (International Journal of Molecular Sciences, 2021).

Tests used:
Assay in all cases: purified protein
purified protein [1] = substrate: COc1ccccc1O; details: pH 5.5, 30 °C, 2.5-20.0 mM substrate
purified protein [2] = substrate: CCn1c(=NN=c2sc3cc(S(=O)(=O)O)ccc3n2CC)sc2cc(S(=O)(=O)O)ccc21; format: biochemical, Aureobasidium bupleuri; details: pH 3.5, 30 °C, 0.2-4.0 mM substrate
purified protein [3] = substrate: COc1cc(/C=C/C(=O)O)cc(OC)c1O; format: biochemical, Aureobasidium bupleuri; details: pH 6.5 (abstract prints optimum pH 6.0), 30 °C, 3.0-150 µM substrate
purified protein [4] = substrate: COc1cc(C=NN=Cc2cc(OC)c(O)c(OC)c2)cc(OC)c1O; format: biochemical, Aureobasidium bupleuri; details: pH 7.0, 30 °C, 5.5-40.0 µM substrate

B1: KbLcc1 (Aureobasidium bupleuri) (protein)
chain: MHLQKLSGLCLLAFASVSWADAVPGDRYLWGADRMGKMVRRATTTSKASSTTAKASTSSVKTSSVSSASSKSSSNIVASVSSSPPASSASSASSTSSLVADAACTHGPNSRACWGNGYSIKTDFDLKHPTTGNTVTYNLEITNTTCNPDGNGDMPCYLINNQFPGPTIVADWGDKVIINVKNSLQNNGTSLHWHGVRQLSSVGSDGVGGITECPIAPGQSRTYSFLATQFGTSWYHSHYSSQYGMGVVGQVVINGPSSSNYDIDLGTFPITDLYYGLANNVNEMTLHNLQNNLPPPDGSNILVNGKGKSAKGGSYSQMSLTKGKKHRLRLINTSVDNAVRVKLDGHSFTVMSADFIPIKPLTNQGWILLAVGQRYDVVFTANQTPGNYFFRAEVATDCFSGNTGKGRALFTYSEVTAAEPTDSNEVAPTNGCTELNTVPYWTQAVDQSQYAAQVKTLKTGVAPGLTTNGQNFALWNLDTRAMMVRWDRPTIQYVFEGNTSYPDPYAVIEIPTEGTWTYWLIQMGPQNPPLPHPIHLHGHDFFVLGSGAGTFDATTAVLNFANPPRRDTSILPGLGWLLISFPANNPGIWLMHCHIAWHISEGLGVQFIEAKNSIAMPDKTTFNAECDSWRTYSKNMAWPQIDSGL
notes: full ORF of 649 residues (1938 bp, intron removed) cloned from its own ATG behind alpha-factor secretion signal (pPINKalpha-HF); tag not given; secreted from Pichia pastoris (PichiaPink strain 1)
Purified protein [1]
  Km: 13.28 mM
  Vmax: 4.7 µmol/min/mg
  kcat: 5.45 s⁻¹
  kcat/Km: 410 M⁻¹ s⁻¹
Purified protein [2]
  Km: 0.580 mM
  Vmax: 34.2 µmol/min/mg
  kcat: 39.6 s⁻¹
  kcat/Km: 68400 M⁻¹ s⁻¹
Purified protein [3]
  Km: 0.015 mM
  Vmax: 1.39 µmol/min/mg
  kcat: 1.61 s⁻¹
  kcat/Km: 109000 M⁻¹ s⁻¹
Purified protein [4]
  Km: 0.021 mM
  Vmax: 33 µmol/min/mg
  kcat: 38.3 s⁻¹
  kcat/Km: 1.81e+06 M⁻¹ s⁻¹
